From PMC11624207, “Human PC4 supports telomere stability and viability in cells utilizing the alternative lengthening of telomeres mechanism”

Target: PC4wt (His-tagged) (human, UniProt P53999 1-127)
Assay: EMSA; EMSA: 50 mM HEPES pH 8, 1 mM DTT, 100 mM NaCl, 0.01% BSA, 2% glycerol; 20 min on ice then 10 min at 25 C; native 8% PAGE, 0.5x TBE, 4 C
Settings: protein: recombinant, tags: N-terminal 6xHis, chain copies: 2, label: 5'-32P, single strand

| Binder | binding result | also measured |
| --- | --- | --- |
| GGACTCTAGCGTGGATCCTTAAGCTAGAAT (ssDNA) [unrelated oligonucleotide] | binds |  |
| TTACGGTTACGGTTACGGTTACGGTTACGG (ssDNA) [mutant telomeric G-rich (TTACGG)5] |  | binding result (unable to form G4): binds |
| TTAGGGTTAGGGTTAGGGTTAGGGTTAGGG (ssDNA) [telomeric G-rich (TTAGGG)5] |  | binding result (G4-capable): binds |
| CCCTAACCCTAACCCTAACCCTAACCCTAA (ssDNA) [telomeric C-rich (CCCTAA)5] | binds |  |
